Test results taken from IntAct's records for PubMed 27462807.

Legend:
tp53b_human TP53BP1 [1] = molecular target: tp53b_human TP53BP1 (UniProt Q12888)
tp53b_human TP53BP1 [2] = molecular target: tp53b_human TP53BP1 (UniProt Q12888); remark: listed apart in the source

tp53b_human TP53BP1, sequence (Q12888 whole entry): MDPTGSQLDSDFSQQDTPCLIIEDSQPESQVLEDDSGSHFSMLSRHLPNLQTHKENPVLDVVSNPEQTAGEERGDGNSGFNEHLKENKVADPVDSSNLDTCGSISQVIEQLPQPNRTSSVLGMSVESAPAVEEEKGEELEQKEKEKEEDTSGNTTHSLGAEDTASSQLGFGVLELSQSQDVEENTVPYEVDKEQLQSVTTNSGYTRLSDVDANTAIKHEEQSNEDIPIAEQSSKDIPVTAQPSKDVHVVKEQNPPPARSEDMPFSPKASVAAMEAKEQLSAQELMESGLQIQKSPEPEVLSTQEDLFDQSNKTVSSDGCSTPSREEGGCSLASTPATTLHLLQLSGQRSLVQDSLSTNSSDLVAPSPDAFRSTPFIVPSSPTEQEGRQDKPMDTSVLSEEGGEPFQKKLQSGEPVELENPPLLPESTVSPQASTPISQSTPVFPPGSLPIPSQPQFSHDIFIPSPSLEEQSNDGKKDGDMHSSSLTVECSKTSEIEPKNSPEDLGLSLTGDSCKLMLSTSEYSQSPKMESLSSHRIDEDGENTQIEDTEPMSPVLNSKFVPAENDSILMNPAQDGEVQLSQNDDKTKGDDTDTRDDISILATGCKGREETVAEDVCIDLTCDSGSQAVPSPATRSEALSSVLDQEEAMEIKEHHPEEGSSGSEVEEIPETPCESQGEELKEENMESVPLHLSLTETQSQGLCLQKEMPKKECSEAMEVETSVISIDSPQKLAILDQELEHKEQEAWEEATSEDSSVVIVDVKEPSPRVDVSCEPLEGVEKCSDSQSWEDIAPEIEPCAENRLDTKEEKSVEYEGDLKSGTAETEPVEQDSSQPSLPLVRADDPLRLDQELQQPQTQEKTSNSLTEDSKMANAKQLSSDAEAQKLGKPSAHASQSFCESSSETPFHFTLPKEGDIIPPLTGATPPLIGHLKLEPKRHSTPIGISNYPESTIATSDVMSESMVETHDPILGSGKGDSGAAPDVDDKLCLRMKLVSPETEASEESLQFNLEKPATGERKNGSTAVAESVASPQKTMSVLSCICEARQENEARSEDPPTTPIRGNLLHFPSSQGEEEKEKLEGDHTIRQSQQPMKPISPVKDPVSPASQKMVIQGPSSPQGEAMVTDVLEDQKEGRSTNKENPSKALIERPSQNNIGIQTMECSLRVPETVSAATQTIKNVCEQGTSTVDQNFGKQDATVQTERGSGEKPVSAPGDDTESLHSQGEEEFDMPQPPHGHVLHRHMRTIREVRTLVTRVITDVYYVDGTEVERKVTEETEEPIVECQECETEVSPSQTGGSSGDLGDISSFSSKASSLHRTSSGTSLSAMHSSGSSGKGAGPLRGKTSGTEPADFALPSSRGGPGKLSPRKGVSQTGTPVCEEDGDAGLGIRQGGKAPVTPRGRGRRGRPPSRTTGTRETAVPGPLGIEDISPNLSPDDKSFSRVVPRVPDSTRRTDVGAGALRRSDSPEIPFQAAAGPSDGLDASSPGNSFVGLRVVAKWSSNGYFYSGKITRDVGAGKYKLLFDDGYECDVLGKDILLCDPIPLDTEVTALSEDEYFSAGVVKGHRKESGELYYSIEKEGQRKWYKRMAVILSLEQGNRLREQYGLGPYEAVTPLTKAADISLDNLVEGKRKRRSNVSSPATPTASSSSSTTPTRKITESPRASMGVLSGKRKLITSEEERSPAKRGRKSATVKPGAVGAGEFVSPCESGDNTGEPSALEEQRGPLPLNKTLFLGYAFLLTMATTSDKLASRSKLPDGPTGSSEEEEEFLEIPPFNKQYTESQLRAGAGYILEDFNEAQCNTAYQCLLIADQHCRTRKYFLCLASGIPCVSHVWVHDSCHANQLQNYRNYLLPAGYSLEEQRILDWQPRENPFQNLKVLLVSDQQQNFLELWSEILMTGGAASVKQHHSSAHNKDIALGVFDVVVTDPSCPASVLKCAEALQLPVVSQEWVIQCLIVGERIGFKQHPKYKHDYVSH

With “Histone H2B type 1-C/E/F/G/I (Homo sapiens) (from UniProt P62807) N85C” the “effect of a mutation on the interaction” value (tp53b_human TP53BP1 [1]) was “with no effect”.
For “Histone H2B type 1-C/E/F/G/I (Homo sapiens) (from UniProt P62807) E106C”, the “effect of a mutation on the interaction” value (tp53b_human TP53BP1 [2]) was “with no effect”.
